Assay: yeast display, Sf9 membrane polyspecificity reagent, FACS + sequencing; frameworks hold sequencing errors
How it was run: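 Polyreactivity labels are assigned by the sorting gate from which each nanobody was recovered. The gates were low and high (top ~1%), set on anti-HA fluorescence for expression and streptavidin fluorescence for reagent binding. Before sorting, galactose-induced (36–48 hours) yeast display cells were stained for 1 hour at 4 °C with 10% biotinylated, detergent-solubilized Sf9 membrane reagent.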

Sequence	polyreactivity (PSR sort gate)
QVQLVESGGGLVQAGGSLRLSCAASGRILYIYAMGWYRQAPGKERELVAAIRSSGGSTYYADSVKGRFTISRDNAKNTVYFQMNSLKPEDTAVYYCAAPDFPKYYPTAYLQADEYWGQGTQVTVSS	high polyreactivity
QVQLVESGGGLVQAGGSLRLSCAASGRILYKYSMGWYRQAPGKERELVAAINRSGGRTYYADSVKGRFTISRDNAKNTVYIQMNSLKPEDTAVYYCAARNPTSYGQFDYLGQGTQVTVSS	high polyreactivity
QVQLVESGGGLVQAGGSLRLSCAASGRILYPYAMGWYRQAPGKERESVAAITFRGGNTYYADSVKGRFTISRDQAKNTVYLQMNSLKPEDTAVYYCAAPQRWTYAYDYWGQGTQVTVSS	high polyreactivity
QVQLVESGGGLVQAGGSLRLSCAASGRILYWYAMGWYRQAPGKERELVAGIDWSGGSTYYADSVKGRFTISRDNAKNTVYLQMNSLKPEDTAVNYCNAVQNRGRGSHRGESTYYYWGQGTQVTVSS	low polyreactivity
QVQLVESGGGLVQAGGSLRLSCAASGRISAYNAMGWYRQAPGKERELVAGISTRTGSTYYADSVKGRFTISRDNAKNTVYLQMNSLKPEDTAVYYCAAYFWGVYFFGMDYWGQGTQVTVSS	low polyreactivity
QVQLVESGGGLVQAGGSLRLSCAASGRISESNDMGWYRPAPGKERELVAAISSSGGSTYYADSVKGRFTISRDNAKNTVYLQMNSLKPEDTAVDYCNAVYYRTVLKIGVYEYDYWGQGTQVTVSS	low polyreactivity
QVQLVESGGGLVQAGGSLRLSCAASGRISESNDMGWYRQAPGKERELVAAISSSGGSTYYADSVKGRFTISRDNAKNTVYLQMNSLKPEDTAVYYCAAQTGYSYGITWQFTKYNYWGQGTQVTVSS	low polyreactivity
QVQLVESGGGLVQAGGSLRLSCAASGRISFRYAMGWYRPAPGKERELVAAINRGGITNYADSVKGRFTISRDNAKNTVYLQMNSLKPEDTAVYYCAARWRGSGGFDYWGQGTQVTVSS	high polyreactivity
QVQLVESGGGLVQAGGSLRLSCAASGRISFRYAMGWYRQAPGKERELVAAINRGGITNYADSVKGRFTISRDNAKNTVYLQMNSLKPEDTAVYYCAARYASPRYKSKIAYWGQGTQVSVSS	high polyreactivity
QVQLVESGGGLVQAGGSLRLSCAASGRISFYYAMGWYRQAPGKERELVATISSSGGSTHYADSVKGRFTISRDNAKNTVYLQMNSLKPEDTAVYYCARDDSDRIWLEQSGYWGQGTQVTVSS	low polyreactivity
QVQLVESGGGLVQAGGSLRLSCAASGRISGGYDMGWYRQAPGKERELVAAITNTGGITYYADSVKGRFTISRDNAKNTVYLQMNSLKPEDTAVYYCNAEYEISFYVLFDYWGQGTQVTVSS	low polyreactivity
QVQLVESGGGLVQAGGSLRLSCAASGRISHYNAMGWYRQAPGKERELVAAISSRGGSTYYADSVKGRFTISRDNAKNTVYLQMNSLKPEDTAVYYCADTAGYWGQGTQVTVSS	high polyreactivity
QVQLVESGGGLVQAGGSLRLSCAASGRISIKNAMGWYRQAPGKERELVAAIRWSADSTYYADSVKGRFTISRDNAKNTVYLQMNSLIPEDTAVYYCAATGRLRYYWGQGTQVTVSS	high polyreactivity
QVQLVESGGGLVQAGGSLRLSCAASGRISKGYAMGWYRQAPGKERELVAAISWRTSSTYYADSVKGRFTISRDNAKNTVYLQMNSLKPEVTAVYYCAAETWLGSWRQVGMDYWGQGTQVTVSS	high polyreactivity
QVQLVESGGGLVQAGGSLRLSCAASGRISKYNAMGWYRQAPGKERELVAAINQRGTSTYYADSVKGRFTISRDNEMNTVYLQMNSLKPEDTAVYYCATTGYRFYLMDYWGQGTQVTVSS	low polyreactivity
QVQLVESGGGLVQAGGSLRLSCAASGRISLFNAMGWYRQAPGKERELVAAITYTGGSTYYADSVKGRFTISRDNAKNTVYLQMNSLKPVDTAVYYCAADPWTAKDDSWGQGTQVTVSS	high polyreactivity

Sequence	polyreactivity (PSR sort gate)
QVQLVESGGGLVQAGGSLRLSCAASGRISLYYTMGWYRQAPGKEREFVAAISSTGGSTYYADSVKGRFTISRDNAKNTVYLQMNSLKPEDTAVYYCAKAYHATSDYWGQGTQVTVSS	low polyreactivity
QVQLVESGGGLVQAGGSLRLSCAASGRISPKNAMGWYRQAPGKERELVATIRKIGGRTYYADSVKGRFTISRDNAKYTVYLQMNSLKPEDTAVYYCATDFAPSYYPDRFDYWGQGTQVTVSS	low polyreactivity
QVQLVESGGGLVQAGGSLRLSCAASGRISQGYAMGWYRQAPGKERELVAVISRSGGSTYYADSVKGRFTISRDNAKNTVYLQMNSVKPEDTAVYYCASRYYWRGYYWGQGTQVTVSS	high polyreactivity
QVQLVESGGGLVQAGGSLRLSCAASGRISQIYARGWYRQAPGKERELVASISSSGSRTYYADSVKGRFTISRDHAKNTVYLQMNSLKPEDTAVYYCAATYLKVHGEYDYWGQGTQVTVSS	high polyreactivity
QVQLVESGGGLVQAGGSLRLSCAASGRISRGYAMGWYRQAPGKERELVAAIDSDGDTNYADSVKGRFTISRDNAKNTVYLQMNSLKPEDTAVYYCNKDGAYKTAYKRWTLYDYWGQGTQVTVSS	low polyreactivity
QVQLVESGGGLVQAGGSLRLSCAASGRISSLYAMGWYRQAPGKERELVAAISGTGGSAYYADSVKGRFTISRDNAKNTVYLQLNSLKPEDTAVYYCNAVRRWRTSQFDYWGQGTQVTVSS	low polyreactivity
QVQLVESGGGLVQAGGSLRLSCAASGRISTRYTMGWYRQAPRKERELVAAISGNAGRTYYADSVKGRFTISRDNAKNTVYLEMNSLKPADTAVYYCARESGYRAYEIQFYYWGQGTQVTVSS	high polyreactivity
QVQLVESGGGLVQAGGSLRLSCAASGRISVFNAMGWYRQAPGKERELVAAITSGGSTNYADSVKGRFTISRDNAKNTVYLQMNSLKPEDTAVYYSNADVYHSHEPHYDYWGQGTQVTVSS	low polyreactivity
QVQLVESGGGLVQAGGSLRLSCAASGRISVRIYAMGWYRQAPGKERELVAIISRSGGSTYYADSVKGRFTISRDNAKNTVYLQMNSLKPEDTEVYYCNARWSFSYTVWVDSYWCLDDYWGQGTQVTVSS	high polyreactivity
QVQLVESGGGLVQAGGSLRLSCAASGRISYANAMGWYRQAPGKERELVASITYSAGSTYADSVKGRFTISRDNAKYTVYLQMNSLKPEDSAVYYCNAYHVIYARESDYWGQCTQVTVSS	low polyreactivity
QVQLVESGGGLVQAGGSLRLSCAASGRISYLYTMGWYRQAPGKERELVAAIRWRDGSTYYADSVKGRFTISRDNAKNTVYLQMNSLTPEDTAVYYCAATPVGFYWYDYWGQGTQVTVSS	low polyreactivity
QVQLVESGGGLVQAGGSLRLSCAASGRISYNNAMGWYRQAPGKERELVAAITKNGGRTYYADSVKGRFTISRDNAKNTVYLQMNSLKPEDTAVYYCAVRSYYYGYDYWGQGTQVTVSS	high polyreactivity
QVQLVESGGGLVQAGGSLRLSCAASGRISYSNAMGWYRQAPGKERELVAAITSSGGSTYYADSVKGRFTISRDNAKNTVYLQMNSLKPEDTAVYYCAAVAYALGFASKEDYWGQGTQVTVSS	high polyreactivity
QVQLVESGGGLVQAGGSLRLSCAASGRIVANAMGWYRQAPGKERELVAAISWSGGRTFYADSVKGRFTISRDNAKNTVYLQMNSLKPEDSAVYYCNARGPVYARYDYCGQGTQVTVSS	low polyreactivity
QVQLVESGGGLVQAGGSLRLSCAASGRIVGYYAMGWYRQAPGKERELVATITFGGGSTYYADTVKGRFTISRDIAKNTVYLQMNSLKPEDTAVYYCAAEIYPLGSLRLGPGEYDHWGQGTQVTVSS	low polyreactivity

— the nanobody polyreactivity screen of Harvey et al. (2022)
